One assay concerns PlcR. The settings on record: SAXS, 2QFC, ref Declerck et al., 2007 (Suppl. ref 7); cited from earlier work.
The target in assay [1] is PhrF* peptide (Bacillus subtilis) (UniProt P71001). The settings on record: cited from earlier work.
The target in assay [2] is Rap_(pLS20) (Bacillus subtilis plasmid pLS20). Description: AUC; sedimentation equilibrium, Rap_(pLS20) (0–15 μM) with Phr*_(pLS20) at 1:3 stoichiometry (Rap:Phr*); same conditions as the SV experiments.
For assay [3] the target is unchanged. Description: SEC; Superdex 200 increase 5/150 GL, 500 mM NaCl, 20 mM TRIS pH 8, 0.2 ml/min; proteins alone (1 mg/ml) and mixtures at 1:2, 1:4, 1:1 and 2:1 (Rco:Rap) incubated 30 min on ice; total protein 0.75–1.25 mg/ml; Phr* at 5:1 over Rap where added. A general note: SEC sorts molecules by how far they enter the pores of the column.
The target is the same in assay [4]. Description: SAXS; apo Rap_(pLS20) at 0.5 to 5 mg/ml (11.3–113 μM); 15 mM HEPES pH 7.5, 150 mM NaCl, 1 mM DTT; 293 K; volume fractions of dimer and foot-2-foot tetramer by OLIGOMER
Assay [5] shares this target. The experiment in a line: AUC; sedimentation equilibrium, apo Rap_(pLS20) at 4.5 to 25 μM; same conditions as the SV experiments; 7000 to 10 000 rpm.
The target is the same in assay [6]. The experiment in a line: AUC; sedimentation velocity, apo Rap_(pLS20) at 4.5 and 25 μM; 20 mM Tris, 250 mM NaCl, 10 mM MgCl2, 1 mM EDTA, 0.1 mM β-mercaptoethanol, 1% glycerol, pH 7.4; 48 000 rpm.
The target is the same in assay [7]. The experiment in a line: SAXS; Rap_(pLS20) at 0.5 to 5 mg/ml with 5-fold molar Phr*_(pLS20); 15 mM HEPES pH 7.5, 150 mM NaCl, 1 mM DTT; 293 K; volume fractions of dimer and foot-2-foot tetramer by OLIGOMER
Assay [8] shares this target. The experiment in a line: AUC; sedimentation velocity, 4.5 μM Rap_(pLS20) with Phr*_(pLS20) at 4.5 μM or 15 μM; 20 mM Tris, 250 mM NaCl, 10 mM MgCl2, 1 mM EDTA, 0.1 mM β-mercaptoethanol, 1% glycerol, pH 7.4.
In assay [9] the target is Rco_(pLS20) (Bacillus subtilis plasmid pLS20). The experiment in a line: SEC; Superdex 200 increase 5/150 GL, 500 mM NaCl, 20 mM TRIS pH 8, 0.2 ml/min; proteins alone (1 mg/ml) and mixtures at 1:2, 1:4, 1:1 and 2:1 (Rco:Rap) incubated 30 min on ice; total protein 0.75–1.25 mg/ml; Phr* at 5:1 over Rap where added.
Another assay concerns the target NprR. To be noted: NprR and its cognate peptide NprX; cited from earlier work.
For assay [10], the target named is Rap_(pLS20) (Bacillus subtilis plasmid pLS20). Description: fluorescence polarisation; equilibrium competition: native Phr*_(pLS20) 0.6–1250 μM against 10 μM Rap_(pLS20) and 50 nM 6-FAM-Phr*_(pLS20); 20 mM Tris pH 7.5, 150 mM NaCl, 1 mM DTT, 0.01% Triton X-100; 25°C. (Fluorescence polarisation rises when a labelled molecule tumbles more slowly, as on binding a larger partner.)

Data on six molecules can be found in PMC7430634, “Inactivation of the dimeric RappLS20 anti-repressor of the conjugation operon is mediated by peptide-induced tetramerization” (Nucleic Acids Research, 2020).

As for LPFEF [PapR], the “oligomerization state of PlcR with peptide” value with PlcR is listed as “tetramers”.
As a reminder, the Kd is the equilibrium constant for the complex coming apart. On to RapF (from UniProt P71002), for which the Kd in assay [1] is 3.1 µM.
In general, stoichiometry N refers to a count of units in the complex or per binding partner. Molecule Rap_(pLS20) (natural protein) registered a stoichiometry N in assay [2] of 4. Further, in assay [3], the stoichiometry N amounted to 2. In assay [4], this molecule returned a dimer fraction at 0.5 mg/ml (11.3 μM) of 0.78, a dimer fraction at 5 mg/ml (0.11 mM) of 0.48, a tetramer fraction at 0.5 mg/ml (11.3 μM) of 0.22 and a tetramer fraction at 5 mg/ml (0.11 mM) of 0.52. The molecule also registered a stoichiometry N in assay [5] of 2. For the same molecule, in assay [6], the percent as a single species (dimer) at 4.5 μM was over 96%, the percent tetramers at 4.5 μM is 1.1%, the percent tetramers at 25 μM was found to be 3.6% and the stoichiometry N is 2. In [7], this molecule had a percent tetramers above 2.5 mg/ml (57.7 μM) with Phr* (pLS20) of 100% and a percent tetramers at 0.5 mg/ml (11.3 μM) with Phr* (pLS20) of 75%. In addition, in [8], the stoichiometry N was found to be 4.
On to Rco_(pLS20) (natural protein), for which the stoichiometry N in [9] was 4.
“SSKPDIVG [NprX, cognate peptide of NprR, eight amino acids (SSKPDIVG)]”: the Kd on NprR was 30 nM.
As a reminder, the IC50 is the midpoint of a concentration-inhibition curve. A higher IC50 goes with weaker potency. In assay [10], QKGMY [Phr*_(pLS20) peptide (QKGMY)] displayed an IC50 of 26.7 µM and a Kd of 7.42 µM.
